Key:
[1] = target: NJAK2 (N-terminal portion of JAK2) (Homo sapiens, UniProt O60674); test: SPA: binding of 3H-NJAK2 (N-terminal JAK2) to βc peptides on streptavidin-coated beads; conditions: less than saturating peptide, 40 pmole per reaction, FIG. 12B
Description: Three different labeling reactions were done using ^3 H-N-succinimidyl propionate (^3 H-NSP, Amersham Life Sciences, Arlington Heights, Ill.). One reaction was done using 0.5 mg of purified JAK2 in 0.1 M borate buffer, pH 8.5, with a reaction volume of 150 μl and an incubation time of one hour on ice with dried 1 mCi of ^3 H-NSP (toluene was removed using a stream of nitrogen). […] Another reaction was done using the buffer 0.1 M sodium phosphate, pH 8.0, and a similar volume as before. One milligram of JAK2 in 1.2 ml of phosphate buffer was incubated for three hours on ice. […] A third reaction was done using 2.5 mg of purified JAK2 in 0.1 m sodium phosphate, pH 8.0, and 2.5 ml volume. It was incubated with 5 mCi of dried ^3 H-NSP on ice for 2 hours. […] All three products were separated from unincorporated label using PD-10 columns (Pharmacia Biotech, Uppsala, Sweden) pre-equilibrated with 20 mM Tris, pH 8.0, 0.15 M NaCl.
Triplicate reactions were done for each data point. The buffer used in all the assays was 35 mM sodium phosphate, 150 mM NaCl, pH 8.0, 10% glycerol. Biotinylated peptides were allowed to bind to streptavidin-coated SPA beads (Amersham Life Sciences, Arlington Heights, Ill., catalog # RPNQ0006) with either less than saturating peptide or excess peptide. […] Under less than saturating conditions, beads and 40 pmole peptide were added to the assay plate well and incubated for one hour with gentle shaking on a Titer plate shaker (Lab-Line Instruments, Inc., Melrose Park, Ill.) at 600 rpm and not washed. […] The plates were then read on a MicroBeta (Wallac) set to read scintillation due to tritium.
Either ^3 H-JAK2 or ^3 H-NJAK2 was added to the wells and, after incubation, the signals measured. […] A competition reaction was also done by adding 5 to 10-fold excess unlabeled JAK2 in those reactions.

JAK2 [2] = target: T1, JAK2 (Homo sapiens, UniProt O60674); test: ELISA binding of JAK2 to immobilized βc peptides; parameters: Y918N clone error corrected to Tyr
T1 sequence (O60674 3-1132): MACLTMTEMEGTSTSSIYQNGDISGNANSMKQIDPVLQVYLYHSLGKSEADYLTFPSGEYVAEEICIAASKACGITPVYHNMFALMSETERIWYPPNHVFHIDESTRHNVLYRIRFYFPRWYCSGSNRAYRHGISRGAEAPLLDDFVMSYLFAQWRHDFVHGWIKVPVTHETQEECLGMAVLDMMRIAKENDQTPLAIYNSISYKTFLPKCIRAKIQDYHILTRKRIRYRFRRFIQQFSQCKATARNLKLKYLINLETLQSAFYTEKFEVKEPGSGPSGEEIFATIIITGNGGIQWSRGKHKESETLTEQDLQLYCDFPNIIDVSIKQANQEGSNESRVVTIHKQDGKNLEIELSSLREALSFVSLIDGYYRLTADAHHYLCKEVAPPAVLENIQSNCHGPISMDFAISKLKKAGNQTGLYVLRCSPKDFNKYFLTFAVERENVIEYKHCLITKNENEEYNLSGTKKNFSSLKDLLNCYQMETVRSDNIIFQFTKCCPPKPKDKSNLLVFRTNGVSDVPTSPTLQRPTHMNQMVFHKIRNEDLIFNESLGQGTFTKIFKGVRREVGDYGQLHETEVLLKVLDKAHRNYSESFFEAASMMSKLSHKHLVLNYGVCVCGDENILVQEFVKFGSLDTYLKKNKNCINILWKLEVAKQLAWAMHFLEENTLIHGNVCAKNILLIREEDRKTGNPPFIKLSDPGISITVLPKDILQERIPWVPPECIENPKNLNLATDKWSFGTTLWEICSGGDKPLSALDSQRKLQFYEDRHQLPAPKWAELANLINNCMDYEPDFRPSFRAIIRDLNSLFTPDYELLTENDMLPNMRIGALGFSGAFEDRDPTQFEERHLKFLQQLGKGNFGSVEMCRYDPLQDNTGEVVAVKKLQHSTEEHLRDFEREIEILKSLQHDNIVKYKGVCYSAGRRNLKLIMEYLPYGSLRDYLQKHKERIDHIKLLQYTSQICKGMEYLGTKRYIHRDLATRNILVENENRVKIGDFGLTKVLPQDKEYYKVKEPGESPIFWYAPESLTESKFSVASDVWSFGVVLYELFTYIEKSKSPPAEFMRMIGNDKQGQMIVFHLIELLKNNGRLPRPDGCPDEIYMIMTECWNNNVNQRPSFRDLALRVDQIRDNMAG
Description: βc peptides corresponding to the proposed JAK2 binding domain (Table 1) were serially diluted and bound 16 hours at room temperature to streptavidin coated 96-well plates (Boehringer-Mannheim, Indianapolis, Ind.) and blocked at 37° with 1% fetal bovine serum in PBS. JAK2 protein was serially diluted on the plate and allowed to bind for 1 hour at room temperature. Plates were washed between incubations with ELISA wash (PBS with 0.04% TWEEN 20). Detection was via anti-FLAG antibody (10 μg/ml, Kodak, New Haven, Conn.) followed by anti-mouse Ig conjugated to peroxidase (1:5000 dilution, Boehringer Mannheim) and 1 mg/ml 2,2'-azinobis(3-ethylbenzthiazolinesulfonic acid) (Sigma), 0.003% H2 O2, 28 mM citric acid, 44 mM Na2 HPO4.
The ELISA assay worked best when the biotinylated βc peptides were immobilized on a streptavidin 96-well plate and the JAK2 was allowed to bind. A dual titration of βc peptides vs. JAK2 was performed (FIG. 24). Peptide 1 [SEQ ID NO:11] (FIG. 24 A) and peptide 2 [SEQ ID NO:12] […] Because 0.4 μM peptide was calculated to saturate the number of biotin binding sites in each well, it was expected that the amount of JAK2 binding should saturate at this quantity of peptide. […] (FIGS. 24 C and D) but peptides 5 and 6 [SEQ ID NOS:15 and 16]

JAK2 [3] = target: T1, JAK2; test: SPA competition: soluble peptide/streptavidin against peptide 4-coated SPA beads for binding 3H-JAK2; parameters: Y918N clone error corrected to Tyr
From the text: FIGS. 20 A and B illustrate a test of the ability of streptavidin-peptide 4 complexes to compete for binding of 3H-JAK2 to peptide 4-coated SPA beads. For A, #0 is a beads only control. In all reactions with peptide bound to beads, excess peptide 4 [SEQ ID NO:14] was bound to beads before adding soluble samples. The reaction in #1 is peptide 4 [SEQ ID NO:14] bound to beads only, no added peptide 4 [SEQ ID NO:14] or streptavidin. #2 contained soluble peptide 4/streptavidin at a ratio of 1:1. #3 contained soluble peptide 4/streptavidin at a ratio of 4:1. #4 contained 20 μM peptide 4 added as soluble peptide 4. #5 contained 20 μM streptavidin. […] For B, 0 is a beads only control. In all reactions with peptide bound to beads, excess peptide 4 was bound to beads in the presence of 1 mg/ml κ-casein (as described in Materials and Methods of Example 8) before adding soluble samples. The reaction in #1 is peptide 4 bound to beads only, no added peptide 4 or streptavidin. #2 contained peptide 1/streptavidin at a ratio of 4:1 and #3 contained peptide 4/streptavidin at a ratio of 4:1.
The assay was set up in 96-well plates (Wallac, catalog # 1450-401), Turku, Finland, using a total assay volume of 200, μl/well. Triplicate reactions were done for each data point. The buffer used in all the assays was 35 mM sodium phosphate, 150 mM NaCl, pH 8.0, 10% glycerol. Biotinylated peptides were allowed to bind to streptavidin-coated SPA beads (Amersham Life Sciences, Arlington Heights, Ill., catalog # RPNQ0006) with either less than saturating peptide or excess peptide. For 400 μg SPA beads used per reaction, there was the capacity to bind 49 pmole of biotin (given the binding capacity of 121 pmole biotin/mg bead). Under less than saturating conditions, beads and 40 pmole peptide were added to the assay plate well and incubated for one hour with gentle shaking on a Titer plate shaker (Lab-Line Instruments, Inc., Melrose Park, Ill.) at 600 rpm and not washed. Under conditions of excess peptide, beads and peptide (80 pmole of peptide per 400 μg of bead) were mixed in batch with or without 1 mg/ml K-casein added as described in Results and Discussion, incubated for one hour with rotation, washed three times with buffer and aliquotted into wells. ^3 H-JAK2 or ^3 H-NJAK2 and any other components to be tested were added and the reactions were mixed and incubated for one hour in the dark at room temperature. The plates were then read on a MicroBeta (Wallac) set to read scintillation due to tritium.
The ability of excess peptide 4 [SEQ ID NO: 14] to compete for binding of JAK2 was tested. Biotinylated peptide 4 was bound to streptavidin in solution to mimic the conditions of the peptide 4 bound to the beads. It was used at a ratio of 1:1 (peptide 4: streptavidin) and at a ratio of 4:1 to see whether having multiple peptides on one streptavidin molecule might do a better job of binding JAK2 and therefore of competing. […] This could be due to the free streptavidin pulling some of the peptide 4 [SEQ ID NO: 14] off the bead. […] Another SPA was done using peptide 4 [SEQ ID NO:14] or peptide 1 [SEQ ID NO:11] bound to streptavidin at a ratio of 4:1. […] The results are shown in panel B of FIG. 20.

Sequence of NJAK2 (N-terminal portion of JAK2) (O60674 1-294 S277G): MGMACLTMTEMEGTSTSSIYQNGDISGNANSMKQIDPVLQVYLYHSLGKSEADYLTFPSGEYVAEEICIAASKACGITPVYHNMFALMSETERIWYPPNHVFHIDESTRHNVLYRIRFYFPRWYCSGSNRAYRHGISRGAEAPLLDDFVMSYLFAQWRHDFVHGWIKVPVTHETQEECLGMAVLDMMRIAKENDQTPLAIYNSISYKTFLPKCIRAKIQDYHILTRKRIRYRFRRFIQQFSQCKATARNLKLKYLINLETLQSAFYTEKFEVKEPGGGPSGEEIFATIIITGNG

GIYGYRLRRKWEEKIPNPSKSHLFQNGSAELWP [peptide 4, βc peptide, N-terminal truncation]
activity profile in binding 3H-NJAK2 (signal) [1]: peptide 4>peptide 3>peptide 5>peptide 6>peptides 1 and 2
suitability for the ELISA (JAK2 [2]): appear optimal
binding of JAK2 by peptide in solution (JAK2 [3]; conclusion from FIG. 20): binds JAK2 very poorly
competition by peptide in solution, bound to streptavidin or not (JAK2 [3]; conclusion from FIG. 20A): competes poorly
competition for binding of JAK2 (JAK2 [3]; peptide/streptavidin 4:1, beads with 1 mg/ml κ-casein, FIG. 20B): does compete for binding JAK2 but very weakly
competition for binding of JAK2 (JAK2 [3]; soluble peptide 4/streptavidin 1:1 and 4:1, no κ-casein, FIG. 20A): only minimal, if any, competition was seen

Source: patent US6187552A, “Method for identifying inhibitors of JAK2/cytokine receptor binding” (Pharmacia & Upjohn Company, priority 1998, dated 2001)
